The target of this experiment is Gal4 DBD-COUP-TF fusion protein (yeast) (UniProt P04386). The experiment is described as follows: cell-based or functional assay.

Data on 1 substance can be found in patent US20030045470A1.

“PGC-1 (expressed from pCMV-PGC-1 in transfected cells) (from UniProt O70343 1-797)”: the PGC-1 mediated activation of mutant PEPCK promoter-luciferase constructs (% of that achieved by HNF-4α) lay within 20 to 30.
